Test results as given in paper PMC8483785, “The plant nuclear lamina proteins NMCP1 and NMCP2 form a filamentous network with lateral filament associations” (Journal of Experimental Botany, 2021).

What was measured:
[1] = molecular target: His-tagged DcNMCP1 (Daucus carota nuclear matrix constituent protein 1 with an N-terminal 6x His tag) (Daucus carota); experiment: transmission electron microscopy after low-angle rotary metal shadowing; purified protein in urea dialysed against H2O (30-120 min) to induce refolding; sprayed in 40% glycerol on mica, platinum-carbon shadowing; monomers to coiled-coil dimer
[2] = molecular target: the molecule itself; experiment: as above

| stoichiometry N [1] | Molecule | stoichiometry N [2] |
| --- | --- | --- |
| 2 | His-tagged DcNMCP1 (Daucus carota nuclear matrix constituent protein 1 with an N-terminal 6x His tag) (from UniProt A0A166B1A6 1-1119) (natural protein) | – |
| – | His-tagged DcNMCP2 (Daucus carota nuclear matrix constituent protein 2 with an N-terminal 6x His tag) (natural protein, UniProt D2YZU8 1-927, looked up, Nuclear matrix constituent protein 2 (NMCP2) of Daucus carota; longest ORF of cDNA clone pD2m, amplified from the start codon to the stop codon; the PCR product included a 2808 bp ORF; GenBank AB514509; also called 6x His-tagged DcNMCP2; product of pDC2mN; not shown: His6, N-terminal, kept) MASPRLTVIQSEKTTVTSSRVSRSSMSDDDIWKRLQEAGFDEDSIKRRDKASLIAYITKLEAEIYDHQYQMGLLIMERKEWGSKFERVEAALNSAELMRKHDKNLYLKDLAEAKKREENLKKAIEIERECLANIEKTLHELRAEYAETKVMADSKLVEARSMIEDALKKLSEADAKKHAAESLEAEASRYHSAAERKLHEVEAREDDLRRRATSFKTECDTKEEEILHERRLLNERQKALQQSQQRLVDGQDLLNKRESHIFERTQELNRKEKELEASKLKQEEELQALVEQQANLETKASSLSLREEVITKSELEVKKREEELCVLQEKLEKKESERIQQLLANYEASLSMKKSEFEAELEVKRKSVHDDIENKRRDWELREVDLHHREELILEKEHELEMQSRAVVDKERDLAGRFSLLEEKENRLHAVEKEIESKEALLQKEKEEIISSKLDIQRSLDALEDEKKQLHHAEEKMEAMKSETNELCVLESKLKEEIETIRAQKQELETEADEMKELKLKFEIEWQSIDEKRKELQKEAECINEQRESLELTLKDERNSLKLEKDAMRDEYMRNNESLSRDREDFMKKMEHERSEWFSKIQKERSDYLLAIEVQSKDLEDRLAKRREEIESYLAERERAFEEEKKKELMRMDTLRETLARETEQVNAELNRLDTERREINLDRERRDREWAELNTLIEELKVQRQKLEKQRELMRADKEEILVQIEHLKQLEDLKVVPDRIALTDIQQSDLQPSKRVSARRSLKRQSGLDSGCRAEDNGNASSGNGSVILSPPLSSPFSWLKRCASSLLEQKVSNKKMRHSEEIITPSTIPARLNAPDDEHAVISANQQTPVHAKETTVYIDKIITIREVTSFNDAIVDGNNQNLEEALSQRAEEKLEDDNNIESEKLEKNGEVDPKIMQASLTEQ | 2 |
